Reference: patent publication US20250215499A1 (CHINESE UNIVERSITY OF HONG KONG, published 2025)

Columns and labels:
BECN1 = molecular target: T1, BECN1 (UniProt Q14457 1-450, limits assumed); assay: co-immunoprecipitation
T1 construct: The ubiquitination co-IPs used endogenous protein from T-REx-293 and KYSE150 cells; also called Beclin 1; Beclin 1/BECN1

SQSTM1/p62 = SQSTM1/p62 (UniProt Q13501 2-440, limits assumed); assay: co-immunoprecipitation

T1 sequence (Q14457 whole entry): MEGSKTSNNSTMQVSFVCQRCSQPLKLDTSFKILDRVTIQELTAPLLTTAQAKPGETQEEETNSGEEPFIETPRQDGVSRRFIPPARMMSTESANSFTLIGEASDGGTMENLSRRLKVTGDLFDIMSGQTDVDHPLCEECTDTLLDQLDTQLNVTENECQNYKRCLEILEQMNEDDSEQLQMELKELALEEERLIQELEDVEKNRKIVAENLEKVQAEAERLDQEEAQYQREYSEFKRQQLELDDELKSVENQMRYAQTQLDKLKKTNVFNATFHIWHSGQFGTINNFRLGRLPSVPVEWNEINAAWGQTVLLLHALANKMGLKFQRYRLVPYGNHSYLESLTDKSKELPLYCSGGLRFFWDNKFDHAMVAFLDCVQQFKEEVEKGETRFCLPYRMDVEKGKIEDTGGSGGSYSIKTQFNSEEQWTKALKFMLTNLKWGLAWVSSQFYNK

B1: SP0495 (small protein of KIAA0495), encoded by KIAA0495-ORF2 (other)
chain: MCLLSSSAASDLAATSLTAHPCHPPLPRQPQPQLILSGSPSIGTVPPPAVGHTSLLPVNPPAISTTTSDLSAREDATPSASTGHLSVFPAFQVKIPAVPSEQTSQSFSEASHRVLPGGGPRCSRDFGAGVAGHLGLGIFGVGFGSPALLQSVVDENSCCLLYVVEDQLCDVEQAFRAEHLGQHQSGSGTGCRHCPQRPAAL
notes: The 1-18 transmembrane/signal peptide domain is only a bioinformatic prediction and was not removed; also called KIAA0495-ORF2/SP0495; KIAA0495-ORF2 protein
B1: no binding (BECN1); no binding (SQSTM1/p62).
